± gives the uncertainty stated by the source.
Assay: self-splicing fitness, log relative to wild type (ln ratio); higher = more splicing; Tetrahymena group I intron in knt gene, E. coli kanamycin selection, DiMSum; sequences stand for … in CUCUCU…GGAGGGAAAAGUUAUCAGGCAUGCACCUGGUAGCUAGUCUUUAAACCAAUAGAUUGCAUCGGUUUAAAAGGCAAGACCGUCAAAUUGCGGGAAAGGGGUCAACAGCCGUUCAGUACCAAGUCUCAGGGGAAACUUUGAGAUGGCCUUGCAAAGGGUAUGGUAAUAAGCUGACGGACAUGGUCCUAACCACGCAGCCAAGUCCUAAGUCAACAGAUCUUCUGUUGAUAUGGAUGCAGUUCACAGACUAAAUGUCGGUCGGGGAAGAUGUAUUCUUCUCAUAAGAUAUAGUCGGACCUCUCCUUAAUGGGAGCUAGCGGAUGAAGUGAUGCAACACUGGAGCCGCUGGGAACUAAUUUGUAUGCGAAAGUAUAUUGAUUAGUUUUGGAGUACUCGUGGUCG
In short: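 Colonies from six replicate transformations of E. coli BL21(DE3) were pooled and amplicon-sequenced on an Illumina HiSeq 2500. The library placed an intron with all eight P1ex-region nucleotides randomised inside the knt kanamycin-resistance gene on pET-22b(+), and cells grew overnight at 37°C or 30°C on LB agar with or without 25 μg/mL kanamycin (plus 100 μg/mL carbenicillin, 50 μM IPTG, 0.2% rhamnose). Fitness is the DiMSum error-weighted combination of wild-type-normalised replicate fold changes, kanamycin versus none.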

| Sequence | self-splicing fitness (ln) (30 °C) | self-splicing fitness (ln) (37 °C) |
| --- | --- | --- |
| UAUCAGCAAUAUUACGGUCA | -0.435 ± 0.057 | 0.0755 ± 0.071 |
| UGCAAGCAAUAUUACGAUAG | -1.09 ± 0.067 | -0.0803 ± 0.085 |
| CCGCAGCAAUAUUACGGUAC | -3.8 ± 0.17 | -2.8 ± 0.2 |
| CGGUAGCAAUAUUACGCCAA | -2.52 ± 0.21 | -2.6 ± 0.3 |
| UUACAGCAAUAUUACGCAUG | -1.18 ± 0.069 | -0.0513 ± 0.087 |
| UUGCAGCAAUAUUACGUAAC | -3.38 ± 0.16 | -2.81 ± 0.21 |
| GCAUAGCAAUAUUACGCUUA | -1.6 ± 0.14 | -1.18 ± 0.1 |
| CGAGAGCAAUAUUACGAUGG | -3.15 ± 0.2 | -0.694 ± 0.16 |
| ACCUAGCAAUAUUACGAGCG | -1.06 ± 0.085 | -0.509 ± 0.097 |
| CACAAGCAAUAUUACGGUGG | -1.99 ± 0.05 | -1.06 ± 0.062 |
| UAUGAGCAAUAUUACGUCAC | -4.15 ± 0.46 | -2.26 ± 0.49 |
| AGACAGCAAUAUUACGAUCC | -0.233 ± 0.083 | -0.102 ± 0.11 |
| CUAUAGCAAUAUUACGCGAG | -1.85 ± 0.29 | 0.335 ± 0.21 |
| CGAUAGCAAUAUUACGAUCG | -2.55 ± 0.24 | -2.39 ± 0.38 |
| GCGGAGCAAUAUUACGGUAG | -2.77 ± 0.23 | – |
| AGAAAGCAAUAUUACGAGCG | -1.21 ± 0.095 | -0.574 ± 0.13 |
| AGCAAGCAAUAUUACGAAUC | -4.48 ± 0.42 | -1.81 ± 0.2 |
| CCUUAGCAAUAUUACGGUGG | -2.71 ± 0.15 | -1.36 ± 0.15 |
| CCUAAGCAAUAUUACGUCUC | -3.01 ± 0.11 | -3.11 ± 0.19 |
| AGUAAGCAAUAUUACGCGUA | -1.73 ± 0.15 | -0.118 ± 0.16 |
| AAGCAGCAAUAUUACGUAGA | -2.7 ± 0.097 | -1.42 ± 0.082 |
| ACUCAGCAAUAUUACGUAAC | -2.79 ± 0.14 | -1.2 ± 0.16 |
| UCAAAGCAAUAUUACGAGAC | -3.15 ± 0.17 | -2.76 ± 0.22 |
| UUAUAGCAAUAUUACGCCGG | -0.862 ± 0.19 | -0.599 ± 0.32 |
| CCCAAGCAAUAUUACGUCAU | -2.95 ± 0.14 | -2.74 ± 0.13 |
| AACCAGCAAUAUUACGCGUU | -3.77 ± 0.15 | -1.56 ± 0.15 |

| Sequence | self-splicing fitness (ln) (30 °C) | self-splicing fitness (ln) (37 °C) |
| --- | --- | --- |
| UUAAAGCAAUAUUACGGAUU | -2.69 ± 0.1 | -1.74 ± 0.14 |
| AGGUAGCAAUAUUACGGACG | -1.46 ± 0.015 | -0.546 ± 0.034 |
| GUCAAGCAAUAUUACGCACC | – | -0.99 ± 0.47 |
| UCGAAGCAAUAUUACGUCGC | -1.76 ± 0.14 | -1.86 ± 0.19 |
| UUGUAGCAAUAUUACGGAAA | -2.55 ± 0.39 | -1.2 ± 0.22 |
| AUCAAGCAAUAUUACGUCUU | -1.86 ± 0.072 | -0.301 ± 0.073 |
| UGUCAGCAAUAUUACGGUAA | -0.649 ± 0.087 | 0.294 ± 0.1 |
| UCUCAGCAAUAUUACGUGGU | -1.7 ± 0.1 | -2.48 ± 0.16 |
| ACUGAGCAAUAUUACGGGGC | -4.03 ± 0.33 | -1.57 ± 0.22 |
| CGGAAGCAAUAUUACGGUCA | -0.599 ± 0.078 | 0.421 ± 0.08 |
| GCAUAGCAAUAUUACGGAGG | -3.03 ± 0.12 | -3.37 ± 0.21 |
| ACUAAGCAAUAUUACGUUGU | -3.58 ± 0.16 | -2.78 ± 0.18 |
| AGCUAGCAAUAUUACGAGUC | -3.89 ± 0.22 | -2.08 ± 0.19 |
| CCGGAGCAAUAUUACGGGGC | -3.78 ± 0.26 | -2.55 ± 0.44 |
| GGUGAGCAAUAUUACGAUUA | – | -0.938 ± 0.45 |
| GUGCAGCAAUAUUACGCUAU | -2.36 ± 0.15 | -1.14 ± 0.12 |
| AGAUAGCAAUAUUACGUUGA | -3.51 ± 0.24 | -1.5 ± 0.14 |
| GCUGAGCAAUAUUACGGCUU | -2.37 ± 0.24 | – |
| GCGGAGCAAUAUUACGAACC | -1.32 ± 0.35 | – |
| GACAAGCAAUAUUACGAAAG | -3.82 ± 0.23 | -3.18 ± 0.24 |
| UGAGAGCAAUAUUACGCACA | -2.08 ± 0.3 | -0.659 ± 0.35 |
| UAUAAGCAAUAUUACGCGUC | -3.23 ± 0.28 | -1.14 ± 0.23 |
| UCAAAGCAAUAUUACGAAUG | -1.71 ± 0.11 | -1.67 ± 0.25 |
| CACGAGCAAUAUUACGGAGC | -2.87 ± 0.44 | -0.87 ± 0.19 |
| UCGCAGCAAUAUUACGUUAC | -3.36 ± 0.36 | -2.95 ± 0.25 |
| GCGCAGCAAUAUUACGCACU | -1.97 ± 0.13 | -1.23 ± 0.12 |

| Sequence | self-splicing fitness (ln) (30 °C) | self-splicing fitness (ln) (37 °C) |
| --- | --- | --- |
| CGCCAGCAAUAUUACGACAU | -3.741 ± 0.023 | -2.75 ± 0.038 |
| AAGAAGCAAUAUUACGGAAU | -1.67 ± 0.12 | -1.85 ± 0.2 |
| CCUAAGCAAUAUUACGUCGG | -2.3 ± 0.29 | -1.51 ± 0.24 |
| GCAAAGCAAUAUUACGGGCU | -2.56 ± 0.12 | -2.45 ± 0.2 |
| GGCCAGCAAUAUUACGUUCC | -1.28 ± 0.14 | 0.125 ± 0.18 |
| GUUGAGCAAUAUUACGCCUA | -1.73 ± 0.26 | -1.92 ± 0.3 |
| GGCCAGCAAUAUUACGCCGG | -3.21 ± 0.17 | -1.99 ± 0.23 |
| ACUCAGCAAUAUUACGAUUG | -2.74 ± 0.084 | -1.59 ± 0.1 |
| AGUUAGCAAUAUUACGCCGC | -2.09 ± 0.38 | – |
| ACCCAGCAAUAUUACGGCGA | -0.786 ± 0.076 | 0.532 ± 0.096 |
| GCUAAGCAAUAUUACGAUUU | -0.73 ± 0.065 | 0.0848 ± 0.075 |
| ACCAAGCAAUAUUACGUUAG | -3.94 ± 0.17 | -2.83 ± 0.17 |
| UCACAGCAAUAUUACGCGUC | -3.18 ± 0.31 | -1.55 ± 0.16 |
| GUACAGCAAUAUUACGUAUC | -2.87 ± 0.16 | -1.35 ± 0.28 |
| UUGAAGCAAUAUUACGCAUG | -0.179 ± 0.12 | -0.519 ± 0.11 |
| CAGAAGCAAUAUUACGAUCC | -2.81 ± 0.16 | -1.93 ± 0.32 |
| CCUAAGCAAUAUUACGCUCA | -3.32 ± 0.27 | -3.18 ± 0.4 |
| CAAUAGCAAUAUUACGUCGA | -2.82 ± 0.21 | -2.96 ± 0.28 |
| UUCGAGCAAUAUUACGCCUG | -3.17 ± 0.29 | -2.64 ± 0.2 |
| CAUCAGCAAUAUUACGGCUC | -1.91 ± 0.1 | -1.1 ± 0.12 |
| UCAGAGCAAUAUUACGCUGC | – | -0.708 ± 0.32 |
| CAGUAGCAAUAUUACGUAAC | – | -0.919 ± 0.33 |
| AAUGAGCAAUAUUACGUCAG | -1.81 ± 0.45 | -2.32 ± 0.42 |
| UAGCAGCAAUAUUACGCGCC | -1.77 ± 0.12 | -1.16 ± 0.19 |
| UACUAGCAAUAUUACGUUGA | -3.37 ± 0.17 | -0.894 ± 0.12 |

Source: the supplement of paper PMC7877785
